The supplement of paper PMC11908140

B1: library; numbered along this chain (parent)
chain: MRKPRAAVGSGHRKQAASQEGRQKHAKNNSQAKPSACDGLARQPEEVVLQASVSSYHLFRDVAEVTAFRGSLLSWYDQEKRDLPWRRRAEDEMDLDRRAYAVWVSEVMLQQTQVATVINYYTGWMQKWPTLQDLASASLEEVNQLWAGLGYYSRGRRLQEGARKVVEELGGHMPRTAETLQQLLPGVGRYTAGAIASIAFGQATGVVDGNVARVLCRVRAIGADPSSTLVSQQLWGLAQQLVDPARPGDFNQAAMELGATVCTPQRPLCSQCPVESLCRARQRVEQEQLLASGSLSGSPDVEECAPNTGQCHLCLPPSEPWDQTLGVVNFPRKASRKPPREESSATCVLEQPGALGAQILLVQRPNSGLLAGLWEFPSVTWEPSEQLQRKALLQELQRWAGPLPATHLRHLGEVVHTFSHIKLTYQVYGLALEGQTPVTTVPPGARWLTQEEFHTAAVSTAMKKVFRVYQGQQPGTCMGSKRSQVSSPCSRKKPRMGQQVLDNFFRSHISTDAHSLNSAAQ

Variants of: B1
Assay: 8OG:A repair function score (normalized; synonymous = 0, nonsense = -1) (normalized log-likelihood score); higher = more repair activity (WT-like)
Settings: with 8OG:A DNA repair reporter (GFP) in HEK-293 MUTYH KO cells
Protocol: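 Saturation mutagenesis (NNN codon scan) of the MUTYH cDNA (521-aa nuclear isoform NM_001048174.1 / NP_001041639), stably expressed under doxycycline induction in HEK-293 MUTYH knockout cells. Cells were co-transfected with an 8OG:A-bearing GFP repair reporter plus mCherry and sorted 72 h later into GFP+ and GFP− bins, three replicates per tile. The Rosace log2 enrichment (GFP+ vs GFP−) was converted per tile to a normalized function score with synonymous variants centered at 0 and nonsense variants (codons 1-471) at -1; low-abundance variants were removed.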

Variant	8OG:A repair function score
MRKPRAAVGSGHRKQAASQEGRQKHAKNNSQAKPSACDGLARQPEEVVLQASVSSYHLFRDVAEVTAFRGSLLSWYDQEKRDLPWRRRAEDEMDLDRRAYAVWVSEVMLQQTQVATVINYYTGWMQKWPTLQDLASAALEEVNQLWAGLGYYSRGRRLQEGARKVVEELGGHMPRTAETLQQLLPGVGRYTAGAIASIAFGQATGVVDGNVARVLCRVRAIGADPSSTLVSQQLWGLAQQLVDPARPGDFNQAAMELGATVCTPQRPLCSQCPVESLCRARQRVEQEQLLASGSLSGSPDVEECAPNTGQCHLCLPPSEPWDQTLGVVNFPRKASRKPPREESSATCVLEQPGALGAQILLVQRPNSGLLAGLWEFPSVTWEPSEQLQRKALLQELQRWAGPLPATHLRHLGEVVHTFSHIKLTYQVYGLALEGQTPVTTVPPGARWLTQEEFHTAAVSTAMKKVFRVYQGQQPGTCMGSKRSQVSSPCSRKKPRMGQQVLDNFFRSHISTDAHSLNSAAQ [S138A]	-0.0766
MRKPRAAVGSGHRKQAASQEGRQKHAKNNSQAKPSACDGLARQPEEVVLQASVSSYHLFRDVAEVTAFRGSLLSWYDQEKRDLPWRRRAEDEMDLDRRAYAVWVSEVMLQQTQVATVINYYTGWMQKWPTLQDLASACLEEVNQLWAGLGYYSRGRRLQEGARKVVEELGGHMPRTAETLQQLLPGVGRYTAGAIASIAFGQATGVVDGNVARVLCRVRAIGADPSSTLVSQQLWGLAQQLVDPARPGDFNQAAMELGATVCTPQRPLCSQCPVESLCRARQRVEQEQLLASGSLSGSPDVEECAPNTGQCHLCLPPSEPWDQTLGVVNFPRKASRKPPREESSATCVLEQPGALGAQILLVQRPNSGLLAGLWEFPSVTWEPSEQLQRKALLQELQRWAGPLPATHLRHLGEVVHTFSHIKLTYQVYGLALEGQTPVTTVPPGARWLTQEEFHTAAVSTAMKKVFRVYQGQQPGTCMGSKRSQVSSPCSRKKPRMGQQVLDNFFRSHISTDAHSLNSAAQ [S138C]	-0.385
MRKPRAAVGSGHRKQAASQEGRQKHAKNNSQAKPSACDGLARQPEEVVLQASVSSYHLFRDVAEVTAFRGSLLSWYDQEKRDLPWRRRAEDEMDLDRRAYAVWVSEVMLQQTQVATVINYYTGWMQKWPTLQDLASQSLEEVNQLWAGLGYYSRGRRLQEGARKVVEELGGHMPRTAETLQQLLPGVGRYTAGAIASIAFGQATGVVDGNVARVLCRVRAIGADPSSTLVSQQLWGLAQQLVDPARPGDFNQAAMELGATVCTPQRPLCSQCPVESLCRARQRVEQEQLLASGSLSGSPDVEECAPNTGQCHLCLPPSEPWDQTLGVVNFPRKASRKPPREESSATCVLEQPGALGAQILLVQRPNSGLLAGLWEFPSVTWEPSEQLQRKALLQELQRWAGPLPATHLRHLGEVVHTFSHIKLTYQVYGLALEGQTPVTTVPPGARWLTQEEFHTAAVSTAMKKVFRVYQGQQPGTCMGSKRSQVSSPCSRKKPRMGQQVLDNFFRSHISTDAHSLNSAAQ [A137Q]	-0.0812
MRKPRAAVGSGHRKQAASQEGRQKHAKNNSQAKPSACDGLARQPEEVVLQASVSSYHLFRDVAEVTAFRGSLLSWYDQEKRDLPWRRRAEDEMDLDRRAYAVWVSEVMLQQTQVATVINYYTGWMQKWPTLQDLASYSLEEVNQLWAGLGYYSRGRRLQEGARKVVEELGGHMPRTAETLQQLLPGVGRYTAGAIASIAFGQATGVVDGNVARVLCRVRAIGADPSSTLVSQQLWGLAQQLVDPARPGDFNQAAMELGATVCTPQRPLCSQCPVESLCRARQRVEQEQLLASGSLSGSPDVEECAPNTGQCHLCLPPSEPWDQTLGVVNFPRKASRKPPREESSATCVLEQPGALGAQILLVQRPNSGLLAGLWEFPSVTWEPSEQLQRKALLQELQRWAGPLPATHLRHLGEVVHTFSHIKLTYQVYGLALEGQTPVTTVPPGARWLTQEEFHTAAVSTAMKKVFRVYQGQQPGTCMGSKRSQVSSPCSRKKPRMGQQVLDNFFRSHISTDAHSLNSAAQ [A137Y]	-0.928
MRKPRAAVGSGHRKQAASQEGRQKHAKNNSQAKPSACDGLARQPEEVVLQASVSSYHLFRDVAEVTAFRGSLLSWYDQEKRDLPWRRRAEDEMDLDRRAYAVWVSEVMLQQTQVATVINYYTGWMQKWPTLQDLASRSLEEVNQLWAGLGYYSRGRRLQEGARKVVEELGGHMPRTAETLQQLLPGVGRYTAGAIASIAFGQATGVVDGNVARVLCRVRAIGADPSSTLVSQQLWGLAQQLVDPARPGDFNQAAMELGATVCTPQRPLCSQCPVESLCRARQRVEQEQLLASGSLSGSPDVEECAPNTGQCHLCLPPSEPWDQTLGVVNFPRKASRKPPREESSATCVLEQPGALGAQILLVQRPNSGLLAGLWEFPSVTWEPSEQLQRKALLQELQRWAGPLPATHLRHLGEVVHTFSHIKLTYQVYGLALEGQTPVTTVPPGARWLTQEEFHTAAVSTAMKKVFRVYQGQQPGTCMGSKRSQVSSPCSRKKPRMGQQVLDNFFRSHISTDAHSLNSAAQ [A137R]	-0.54
MRKPRAAVGSGHRKQAASQEGRQKHAKNNSQAKPSACDGLARQPEEVVLQASVSSYHLFRDVAEVTAFRGSLLSWYDQEKRDLPWRRRAEDEMDLDRRAYAVWVSEVMLQQTQVATVINYYTGWMQKWPTLQDLASWSLEEVNQLWAGLGYYSRGRRLQEGARKVVEELGGHMPRTAETLQQLLPGVGRYTAGAIASIAFGQATGVVDGNVARVLCRVRAIGADPSSTLVSQQLWGLAQQLVDPARPGDFNQAAMELGATVCTPQRPLCSQCPVESLCRARQRVEQEQLLASGSLSGSPDVEECAPNTGQCHLCLPPSEPWDQTLGVVNFPRKASRKPPREESSATCVLEQPGALGAQILLVQRPNSGLLAGLWEFPSVTWEPSEQLQRKALLQELQRWAGPLPATHLRHLGEVVHTFSHIKLTYQVYGLALEGQTPVTTVPPGARWLTQEEFHTAAVSTAMKKVFRVYQGQQPGTCMGSKRSQVSSPCSRKKPRMGQQVLDNFFRSHISTDAHSLNSAAQ [A137W]	-1.02
MRKPRAAVGSGHRKQAASQEGRQKHAKNNSQAKPSACDGLARQPEEVVLQASVSSYHLFRDVAEVTAFRGSLLSWYDQEKRDLPWRRRAEDEMDLDRRAYAVWVSEVMLQQTQVATVINYYTGWMQKWPTLQDLASVSLEEVNQLWAGLGYYSRGRRLQEGARKVVEELGGHMPRTAETLQQLLPGVGRYTAGAIASIAFGQATGVVDGNVARVLCRVRAIGADPSSTLVSQQLWGLAQQLVDPARPGDFNQAAMELGATVCTPQRPLCSQCPVESLCRARQRVEQEQLLASGSLSGSPDVEECAPNTGQCHLCLPPSEPWDQTLGVVNFPRKASRKPPREESSATCVLEQPGALGAQILLVQRPNSGLLAGLWEFPSVTWEPSEQLQRKALLQELQRWAGPLPATHLRHLGEVVHTFSHIKLTYQVYGLALEGQTPVTTVPPGARWLTQEEFHTAAVSTAMKKVFRVYQGQQPGTCMGSKRSQVSSPCSRKKPRMGQQVLDNFFRSHISTDAHSLNSAAQ [A137V]	-0.325
MRKPRAAVGSGHRKQAASQEGRQKHAKNNSQAKPSACDGLARQPEEVVLQASVSSYHLFRDVAEVTAFRGSLLSWYDQEKRDLPWRRRAEDEMDLDRRAYAVWVSEVMLQQTQVATVINYYTGWMQKWPTLQDLASNSLEEVNQLWAGLGYYSRGRRLQEGARKVVEELGGHMPRTAETLQQLLPGVGRYTAGAIASIAFGQATGVVDGNVARVLCRVRAIGADPSSTLVSQQLWGLAQQLVDPARPGDFNQAAMELGATVCTPQRPLCSQCPVESLCRARQRVEQEQLLASGSLSGSPDVEECAPNTGQCHLCLPPSEPWDQTLGVVNFPRKASRKPPREESSATCVLEQPGALGAQILLVQRPNSGLLAGLWEFPSVTWEPSEQLQRKALLQELQRWAGPLPATHLRHLGEVVHTFSHIKLTYQVYGLALEGQTPVTTVPPGARWLTQEEFHTAAVSTAMKKVFRVYQGQQPGTCMGSKRSQVSSPCSRKKPRMGQQVLDNFFRSHISTDAHSLNSAAQ [A137N]	-0.267
MRKPRAAVGSGHRKQAASQEGRQKHAKNNSQAKPSACDGLARQPEEVVLQASVSSYHLFRDVAEVTAFRGSLLSWYDQEKRDLPWRRRAEDEMDLDRRAYAVWVSEVMLQQTQVATVINYYTGWMQKWPTLQDLASMSLEEVNQLWAGLGYYSRGRRLQEGARKVVEELGGHMPRTAETLQQLLPGVGRYTAGAIASIAFGQATGVVDGNVARVLCRVRAIGADPSSTLVSQQLWGLAQQLVDPARPGDFNQAAMELGATVCTPQRPLCSQCPVESLCRARQRVEQEQLLASGSLSGSPDVEECAPNTGQCHLCLPPSEPWDQTLGVVNFPRKASRKPPREESSATCVLEQPGALGAQILLVQRPNSGLLAGLWEFPSVTWEPSEQLQRKALLQELQRWAGPLPATHLRHLGEVVHTFSHIKLTYQVYGLALEGQTPVTTVPPGARWLTQEEFHTAAVSTAMKKVFRVYQGQQPGTCMGSKRSQVSSPCSRKKPRMGQQVLDNFFRSHISTDAHSLNSAAQ [A137M]	-0.417
MRKPRAAVGSGHRKQAASQEGRQKHAKNNSQAKPSACDGLARQPEEVVLQASVSSYHLFRDVAEVTAFRGSLLSWYDQEKRDLPWRRRAEDEMDLDRRAYAVWVSEVMLQQTQVATVINYYTGWMQKWPTLQDLASSSLEEVNQLWAGLGYYSRGRRLQEGARKVVEELGGHMPRTAETLQQLLPGVGRYTAGAIASIAFGQATGVVDGNVARVLCRVRAIGADPSSTLVSQQLWGLAQQLVDPARPGDFNQAAMELGATVCTPQRPLCSQCPVESLCRARQRVEQEQLLASGSLSGSPDVEECAPNTGQCHLCLPPSEPWDQTLGVVNFPRKASRKPPREESSATCVLEQPGALGAQILLVQRPNSGLLAGLWEFPSVTWEPSEQLQRKALLQELQRWAGPLPATHLRHLGEVVHTFSHIKLTYQVYGLALEGQTPVTTVPPGARWLTQEEFHTAAVSTAMKKVFRVYQGQQPGTCMGSKRSQVSSPCSRKKPRMGQQVLDNFFRSHISTDAHSLNSAAQ [A137S]	-0.0075
MRKPRAAVGSGHRKQAASQEGRQKHAKNNSQAKPSACDGLARQPEEVVLQASVSSYHLFRDVAEVTAFRGSLLSWYDQEKRDLPWRRRAEDEMDLDRRAYAVWVSEVMLQQTQVATVINYYTGWMQKWPTLQDLASTSLEEVNQLWAGLGYYSRGRRLQEGARKVVEELGGHMPRTAETLQQLLPGVGRYTAGAIASIAFGQATGVVDGNVARVLCRVRAIGADPSSTLVSQQLWGLAQQLVDPARPGDFNQAAMELGATVCTPQRPLCSQCPVESLCRARQRVEQEQLLASGSLSGSPDVEECAPNTGQCHLCLPPSEPWDQTLGVVNFPRKASRKPPREESSATCVLEQPGALGAQILLVQRPNSGLLAGLWEFPSVTWEPSEQLQRKALLQELQRWAGPLPATHLRHLGEVVHTFSHIKLTYQVYGLALEGQTPVTTVPPGARWLTQEEFHTAAVSTAMKKVFRVYQGQQPGTCMGSKRSQVSSPCSRKKPRMGQQVLDNFFRSHISTDAHSLNSAAQ [A137T]	-0.295
MRKPRAAVGSGHRKQAASQEGRQKHAKNNSQAKPSACDGLARQPEEVVLQASVSSYHLFRDVAEVTAFRGSLLSWYDQEKRDLPWRRRAEDEMDLDRRAYAVWVSEVMLQQTQVATVINYYTGWMQKWPTLQDLASPSLEEVNQLWAGLGYYSRGRRLQEGARKVVEELGGHMPRTAETLQQLLPGVGRYTAGAIASIAFGQATGVVDGNVARVLCRVRAIGADPSSTLVSQQLWGLAQQLVDPARPGDFNQAAMELGATVCTPQRPLCSQCPVESLCRARQRVEQEQLLASGSLSGSPDVEECAPNTGQCHLCLPPSEPWDQTLGVVNFPRKASRKPPREESSATCVLEQPGALGAQILLVQRPNSGLLAGLWEFPSVTWEPSEQLQRKALLQELQRWAGPLPATHLRHLGEVVHTFSHIKLTYQVYGLALEGQTPVTTVPPGARWLTQEEFHTAAVSTAMKKVFRVYQGQQPGTCMGSKRSQVSSPCSRKKPRMGQQVLDNFFRSHISTDAHSLNSAAQ [A137P]	-0.869
